{
  "source": "paper PMC11919277",
  "experiment_in_all_cases": "co-immunoprecipitation (anti-HA agarose beads), western blot, ImageJ densitometry",
  "settings_in_all_cases": "three independent experiments; parent: est. 0.97; read off a plot",
  "key": {"[1]": {"molecular_target": "WT-Clocka, FLAG-tagged (zebrafish Clocka, wild type)"}, "[2]": {"molecular_target": "WT-Bmal1a, HA-tagged (zebrafish Bmal1a, wild type)"}, "[3]": {"molecular_target": "Bmal1a-mut, HA-tagged (zebrafish Bmal1a with the four cetacean-specific BMAL1 mutations)"}},
  "data": [
    {"substance": "WT-Bmal1a, HA-tagged (zebrafish Bmal1a, wild type) D3E; L456P; H461R; M466T", "values": [
      {"measurement": "ratio to parent", "setting": "[1]", "value": 1.2}
    ]},
    {"substance": "WT-Clocka, FLAG-tagged (zebrafish Clocka, wild type) M724V; S752P; T779A", "values": [
      {"measurement": "ratio to parent", "setting": "[2]", "value": 1.6}
    ]},
    {"substance": "m1; m3 Clocka: M724V; S752P; T779A; Bmal1a: D3E; L456P; H461R; M466T", "values": [
      {"measurement": "ratio to parent", "setting": "[3]", "value": 1.6}
    ]}
  ]
}
